Experiments:
IDH1 = IDH1 (UniProt O75874); assay: co-IP of Flag-IDH1 and HA-IDH1; settings: reference: Flag-IDH1 wild type, MPA; sites T77
OCT6 (POU3F1) = OCT6 (POU3F1) (UniProt Q03052); assay: co-immunoprecipitation; settings: reference: wild type, MPA; sites T77
isocitrate (ICT) = assay: SPR; settings: 1:1 binding model

Chain of UniProt O75874 (O75874 whole entry T77A): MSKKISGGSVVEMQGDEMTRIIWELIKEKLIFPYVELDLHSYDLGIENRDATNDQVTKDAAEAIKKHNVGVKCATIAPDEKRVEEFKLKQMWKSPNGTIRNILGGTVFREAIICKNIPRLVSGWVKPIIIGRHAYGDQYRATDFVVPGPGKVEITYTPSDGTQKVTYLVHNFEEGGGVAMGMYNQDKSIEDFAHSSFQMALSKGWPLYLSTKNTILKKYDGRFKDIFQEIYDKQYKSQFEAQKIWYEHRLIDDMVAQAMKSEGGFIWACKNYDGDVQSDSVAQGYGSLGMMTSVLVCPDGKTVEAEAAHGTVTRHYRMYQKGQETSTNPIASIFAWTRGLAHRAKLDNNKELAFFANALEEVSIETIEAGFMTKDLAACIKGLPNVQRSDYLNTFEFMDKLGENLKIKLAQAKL

Substance: IDH1 (from UniProt O75874) Flag-IDH1 T77A, MPA
- binding against the reference (IDH1): weaker

Substance: IDH1 (from UniProt O75874) T77A, MPA
- binding against the reference (OCT6 (POU3F1)): weaker

Substance: recombinant IDH1 WT T77A
- Kd (isocitrate (ICT)): 112 nM
